# Test results as given in paper PMC7159909.
# Assay: Co-IP and immunoblot, WSN-infected A549
# Settings: glycan lost; control: si-ctrl
protein,measurement,value
interferon regulatory factor-5 (IRF5): si-OGT (protein) parent chain: MNQSIPVAPTPPRRVRLKPWLVAQVNSCQYPGLQWVNGEKKLFCIPWRHATRHGPSQDGDNTIFKAWAKETGKYTEGVDEADPAKWKANLRCALNKSRDFRLIYDGPRDMPPQPYKIYEVCSNGPAPTDSQPPEDYSFGAGEEEEEEEELQRMLPSLSLTEDVKWPPTLQPPTLQPPVVLGPPAPDPSPLAPPPGNPAGFRELLSEVLEPGPLPASLPPAGEQLLPDLLISPHMLPLTDLEIKFQYRGRPPRALTISNPHGCRLFYSQLEATQEQVELFGPISLEQVRFPSPEDIPSDKQRFYTNQLLDVLDRGLILQLQGQDLYAIRLCQCKVFWSGPCASAHDSCPNPIQREVKTKLFSLEHFLNELILFQKGQTNTPPPFEIFFCFGEEWPDRKPREKKLITVQVVPVAARLLLEMFSGELSWSADSIRLQISNPDLKDRMVEQFKELHHIWQSQQRLQPVAQAPPGAGLGVGQGPWPMHPAGMQ,other: ubiquitination,decreases
